T1: PEM peptide (human)
T1 peptide: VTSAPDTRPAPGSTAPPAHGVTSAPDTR


Assays:
PEM = molecular target: T2, PEM (Homo sapiens, UniProt P15941); test: ELISA of phage from the MP-1 saturation mutagenesis library for binding to PEM; conditions: phage-displayed abtide from MP-1 saturation mutagenesis library
T2 construct: made in house; host or cells: chemical peptide synthesis
Experimental: A saturation mutagenesis library based on one of the PEM abtides, MP-1, was constructed. Nucleotide sequences encoding the MP-1 abtide were synthesized using a doping scheme similar to that described in Section 5.3 whereby each nucleotide was contaminated with 9% of each of the other 3 nucleotides (e.g. G=73% G, 9% A, 9% T, 9° C.). The resulting mutagenic oligonucleotides were used to construct a library by TSAR library methods described above (see FIG. 13).
The resulting library was screened to identify phage expressing abtides capable of binding to PEM. The binding of isolated phage to PEM was confirmed by an ELISA assay.

PEM peptide = molecular target: T1, PEM peptide; test: phage ELISA on PEM

Molecule | binding of isolated phage to PEM (ELISA) (PEM) | binding result (PEM peptide)
GTRVPPGFALRGGRDGLSWAGCGKAPISKTYTSARGRSRKKGS (phage displayed) [E3] | Negative Binding Sequences | –
EALVCRGKPPWSGPAGLLWQGCGTGPVSRTFTSAQGRSRNKTS [E88] | Positive Binding Sequences | –
GSSVCGGQPSGRGFGGLPGPGCGNGPTSNTLTSARGGFPNKGL (phage displayed) [E27] | Negative Binding Sequences | –
AGRELRQDEGEGGAGADVARLREGPICSTFTPARGGSCPSGL (phage displayed) [E43] | Negative Binding Sequences | –
GDPECRGKPRGRWTGSLACTGCGNGPNSKICTRARGVSRNKGP [E60] | Negative Binding Sequences | –
GPRSWMGQPRGSDAGSCKWAGCGDAPMWRASTPGHGGPPNRGS [E85] | Positive Binding Sequences | –
VSTGWSGTPRWCAPGGKQGSGCGNGPRWTTLTPDLGGTRKYGP (phage displayed) [E4] | Positive Binding Sequences | –
GEPVWCRHSGGRVQGGLDWLGCGDGPLRYTVTPARGGPSKHGP [E64] | Positive Binding Sequences | –
VSRAWSGKPRLMGSHGLNCPGCGKGHSGIMFIPDPAGSANTPP [E67] | Positive Binding Sequences | –
G PQGSEHQCCSGHWGLKFPGCGNGPICNNFTALRGASRKNGP (GPQGSEHQCCSGHWGLKFPGCGNGPICNNFTALRGASRKNGP) [E62] | Positive Binding Sequences | –
STPGCSGYSGSGDPRCLTCTACGNGHTRKTLTPAHGRSTHKEP [E72] | Negative Binding Sequences | –
GAPVWRGNRWCSDNGELERPGCGYGPRFNILPPGRGNSRKPSP [E73] | Positive Binding Sequences | –
RSAVSEGKPREIVPGGCMWPGCGNGRKSNTLTHGPEQFQEIEP (phage displayed) [E15] | Negative Binding Sequences | –
GAPLWQGDPADEVLGGSMIPGCGIGALSQTFTPTPGGSRKNVT (phage displayed) [E37] | Negative Binding Sequences | –
GAPVWRGNPRWRGPGGFKWPGCGNGPMCNTFTPARGGSRNNGP [MP-1] | Positive Binding Sequences | –
CAPMWSGKPPWCVGGGVKFRGCGNRPDCNIITPRLVESRDKAL [E68] | Positive Binding Sequences | –
REPVVGGKPWCRGPGGLRWRGCGKSQFDKIITLSRDNRRDKRP [E83] | Negative Binding Sequences | –
G PLLPGEAAVHGARGLMRSGCGNGPTWNRLTAACRDSRNKGP (GPLLPGEAAVHGARGLMRSGCGNGPTWNRLTAACRDSRNKGP; phage displayed; extra N-terminal G) [E44] | Positive Binding Sequences | –
GAPVSRCKPACGGFWGVNWPGCGNASMCKTFTNGHGVSSDNGH (phage displayed) [E22] | Positive Binding Sequences | –

Molecule | binding of isolated phage to PEM (ELISA) (PEM) | binding result (PEM peptide)
GQPECRITSGCCGTDGNKWLGCGKVDMCNTLNPAVGCHGTNGS (phage displayed) [E34] | Negative Binding Sequences | –
GAHGYKNGSTCTGLGGWRCRGCGKGAMCNNPSPAGGAYHNQGP (phage displayed) [E29] | Positive Binding Sequences | –
QARVSMAISCRSGPSDLMHQGCGYGPRCNPDTTDSGGSHTNTP (phage displayed) [E49] | Negative Binding Sequences | –
GSALLTSKGCVRGPGGLMRPGCGNDRLGKSSTYAHGGWIKTGP (phage displayed) [E21] | Positive Binding Sequences | –
GAPLWCEKLSGTGSGGFKWPGCGSGPTYNTFTPARVGSDNKWP [E7] | Positive Binding Sequences | –
GSPVWMGSTRWTGHGWFRSQGCGNVPRTNSCAPAGKDSQNKGP [E65] | Positive Binding Sequences | –
GPPVWSAKSRWTGTGVLNWPGCGKVPSCSTYTPSRDRSRKSDP (phage displayed) [E16] | Positive Binding Sequences | –
ADPVCSRKPDGGGLRGLRWPGCGKGPILYNVTAARGGSRNNGP [E70] | Positive Binding Sequences | –
GLSLVRGDSWGSGAGGWKRHGCGHGPMYNPQTPARGGSCTRNT [E66] | Positive Binding Sequences | –
GSSGWKVKHRCGGPGTLQRPGCGNLPLGHTFPPTRGGSHMEGA [E84] | Positive Binding Sequences | –
GSPVWSGDNRWRGSSPLKRPGCGNGAKCNTLKDNRKDSRKTKH (phage displayed) [E33] | Positive Binding Sequences | –
SSGVGNGKPRSWAPDALNGGCGNIQFANTITPDRGGSCNQTL (phage displayed) [E24] | Negative Binding Sequences | –
GAPVVGDILWCSGARGAKWPGCGKGPTNKTFSHSRGGTQKSGL [E90] | Positive Binding Sequences | –
GAPVVGDILWCSGARGAKWPGCGKGPTNKTFSHSRGGTQKSGL [E90] | – | binds
VSRAWSGKPRLMGSHGLNCPGCGKGHSGIMFIPDPAGSANTPP [E67] | – | binds
GAPLWQGDPADEVLGGSMIPGCGIGALSQTFTPTPGGSRKNVT [E37] | – | no binding
GSSGWKVKHRCGGPGTLQRPGCGNLPLGHTFPPTRGGSHMEGA [E84] | – | binds
ADPVCSRKPDGGGLRGLRWPGCGKGPILYNVTAARGGSRNNGP [E70] | – | binds
GSSVCGGQPSGRGFGGLPGPGCGNGPTSNTLTSARGGFPNKGL [E27] | – | no binding

Molecule | binding of isolated phage to PEM (ELISA) (PEM) | binding result (PEM peptide)
SSGVGNGKPRSWAPDALNGGCGNIQFANTITPDRGGSCNQTL [E24] | – | no binding
GSPVWSGDNRWRGSSPLKRPGCGNGAKCNTLKDNRKDSRKTKH [E33] | – | binds
GAPVSRCKPACGGFWGVNWPGCGNASMCKTFTNGHGVSSDNGH [E22] | – | binds
GPRSWMGQPRGSDAGSCKWAGCGDAPMWRASTPGHGGPPNRGS [E85] | – | binds
GAHGYKNGSTCTGLGGWRCRGCGKGAMCNNPSPAGGAYHNQGP [E29] | – | binds
EALVCRGKPPWSGPAGLLWQGCGTGPVSRTFTSAQGRSRNKTS [E88] | – | binds
GPPVWSAKSRWTGTGVLNWPGCGKVPSCSTYTPSRDRSRKSDP [E16] | – | binds
CAPMWSGKPPWCVGGGVKFRGCGNRPDCNIITPRLVESRDKAL [E68] | – | binds
RSAVSEGKPREIVPGGCMWPGCGNGRKSNTLTHGPEQFQEIEP [E15] | – | no binding
GQPECRITSGCCGTDGNKWLGCGKVDMCNTLNPAVGCHGTNGS [E34] | – | no binding
GLSLVRGDSWGSGAGGWKRHGCGHGPMYNPQTPARGGSCTRNT [E66] | – | binds
VSTGWSGTPRWCAPGGKQGSGCGNGPRWTTLTPDLGGTRKYGP [E4] | – | binds
GAPVWRGNRWCSDNGELERPGCGYGPRFNILPPGRGNSRKPSP [E73] | – | binds
AGRELRQDEGEGGAGADVARLREGPICSTFTPARGGSCPSGL [E43] | – | no binding
GSALLTSKGCVRGPGGLMRPGCGNDRLGKSSTYAHGGWIKTGP [E21] | – | binds
GTRVPPGFALRGGRDGLSWAGCGKAPISKTYTSARGRSRKKGS [E3] | – | no binding
GEPVWCRHSGGRVQGGLDWLGCGDGPLRYTVTPARGGPSKHGP [E64] | – | binds
GAPLWCEKLSGTGSGGFKWPGCGSGPTYNTFTPARVGSDNKWP [E7] | – | binds
GSPVWMGSTRWTGHGWFRSQGCGNVPRTNSCAPAGKDSQNKGP [E65] | – | binds
